Results published in PMC9190237 (Biochemistry, 2022).
Where no end group is shown, it is not given here. FAM = fluorescein

B1: Unmodified H3^(FAM) peptide (ARTKQTARKSTGG{K-FAM}) (peptide)
peptide: ARTKQTARKSTGGK(FAM)

Tests used:
[1] = target: T1, UHRF1^PHD (Homo sapiens, UniProt Q96T88); experiment: Intrinsic tryptophan; format: binding; conditions: 5 μM peptide, 1 μM UHRF1^PHD
T1 sequence (Q96T88 298-366): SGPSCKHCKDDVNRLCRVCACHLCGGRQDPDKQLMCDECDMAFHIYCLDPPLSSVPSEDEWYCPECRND

[2] = target: UHRF1^PHD (as used for tryptophan fluorescence) (human (by the printed accession)); experiment: intrinsic tryptophan fluorescence quenching
[3] = target: T2, UHRF1^TTD-PHD (His-tagged TTD-PHD domains of UHRF1; residues 133-366) (human (by the printed accession), UniProt Q96T88-1 133-366); experiment: fluorescence polarisation
T2 sequence (looked up): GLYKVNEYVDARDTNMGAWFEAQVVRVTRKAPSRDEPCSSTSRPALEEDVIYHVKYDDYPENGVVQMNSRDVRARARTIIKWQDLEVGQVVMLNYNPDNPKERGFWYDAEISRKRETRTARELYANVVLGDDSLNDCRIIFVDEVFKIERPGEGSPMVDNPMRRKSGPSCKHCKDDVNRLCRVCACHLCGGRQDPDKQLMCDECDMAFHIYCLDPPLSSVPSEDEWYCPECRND

[4] = target: T3, GST-UHRF1^PHD (residues 298-366) (human (by the printed accession), UniProt Q96T88-1 298-366); experiment: fluorescence polarisation
T3 sequence (looked up): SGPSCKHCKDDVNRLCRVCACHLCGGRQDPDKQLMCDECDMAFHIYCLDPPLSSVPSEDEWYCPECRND

[5] = target: T4, UHRF1^TTD (TTD construct alone; residues 127-285) (human (by the printed accession), UniProt Q96T88-1 127-285); experiment: fluorescence polarisation
T4 sequence (looked up): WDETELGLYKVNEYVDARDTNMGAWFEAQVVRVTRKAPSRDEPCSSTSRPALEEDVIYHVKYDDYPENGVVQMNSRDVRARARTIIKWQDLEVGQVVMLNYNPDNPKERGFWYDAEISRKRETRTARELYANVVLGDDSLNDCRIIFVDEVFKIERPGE

[6] = target: T2, UHRF1^TTD-PHD (His-tagged TTD-PHD …); experiment: AlphaScreen or HTRF
[7] = target: T5, Full-length UHRF1 (N-terminal 6xHis tag) (human (by the printed accession), UniProt Q96T88-1 1-793); experiment: fluorescence polarisation
T5 sequence (looked up): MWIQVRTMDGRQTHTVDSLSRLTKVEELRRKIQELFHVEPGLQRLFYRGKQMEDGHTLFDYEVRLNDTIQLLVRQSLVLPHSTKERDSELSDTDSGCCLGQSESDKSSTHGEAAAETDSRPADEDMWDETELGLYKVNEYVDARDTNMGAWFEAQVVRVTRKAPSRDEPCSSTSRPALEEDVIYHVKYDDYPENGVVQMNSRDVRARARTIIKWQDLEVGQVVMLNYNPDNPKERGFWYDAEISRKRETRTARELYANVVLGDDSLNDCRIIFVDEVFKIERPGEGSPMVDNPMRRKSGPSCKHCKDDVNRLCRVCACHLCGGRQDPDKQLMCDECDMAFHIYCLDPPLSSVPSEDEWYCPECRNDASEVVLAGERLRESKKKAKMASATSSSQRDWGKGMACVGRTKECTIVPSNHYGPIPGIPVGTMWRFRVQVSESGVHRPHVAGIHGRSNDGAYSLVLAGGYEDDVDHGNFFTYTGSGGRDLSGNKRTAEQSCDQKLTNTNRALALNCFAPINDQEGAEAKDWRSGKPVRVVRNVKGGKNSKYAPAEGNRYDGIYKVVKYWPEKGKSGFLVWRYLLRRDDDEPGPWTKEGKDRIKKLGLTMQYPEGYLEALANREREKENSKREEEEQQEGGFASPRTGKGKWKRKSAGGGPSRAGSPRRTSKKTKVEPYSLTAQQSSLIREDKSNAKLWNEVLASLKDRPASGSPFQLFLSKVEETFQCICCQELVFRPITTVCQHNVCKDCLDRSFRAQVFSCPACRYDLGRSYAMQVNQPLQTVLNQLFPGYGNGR

[8] = target: T2, UHRF1^TTD-PHD (His-tagged TTD-PHD …); experiment: fluorescence polarisation; remark: listed apart in the source
[9] = target: B1; experiment: fluorescence polarisation

With “ARTKQTAR{K-me3}STGG{K-FAM} [H3K9me3^(FAM)]” the “W358 tryptophan fluorescence quenching of UHRF1^PHD” value [1] was ~ 50%.

“H3K9me3^(FAM) peptide (ARTKQTAR{K-me3}STGG{K-FAM})” showed a percent quenching of W358 fluorescence [2] of 50%.

B1: binds [3]; binds [4].

{FAM}-GKGKWKRKSAGGGPS [PBR^(FAM) peptide ({G-FAM}KGKWKRKSAGGGPS; UHRF1 polybasic region, residues 643-657)]: binds [5].

ARTKQTARKSTGGKW (trimethyl-lysine at K9; biotin on K14) [H3K9me3^(Biotin) peptide (ARTKQTAR{K-me3}STGG{K-biotin}W)]: binds [6].

ARTKQTARKSTGGK (trimethyl-lysine at K9; FAM (fluorescein) on K14) [H3K9me3^(FAM) peptide (ARTKQTAR{K-me3}STGG{K-FAM})]: binds [5]; binds [7]; binds [8].

ARTKQTARKSTGGKW (trimethyl-lysine at K9) [H3K9me3 peptide (unlabeled; ARTKQTAR{K-me3}STGGKW)]: binds [6].

B2: GST-UHRF1^(PHD; 337A) (domain or fragment, human (by the printed accession), UniProt Q96T88-1 298-366, looked up)
chain: SGPSCKHCKDDVNRLCRVCACHLCGGRQDPDKQLMCDECAMAFHIYCLDPPLSSVPSEDEWYCPECRND
For B2, the “fold impairment of binding against GST-UHRF1^PHD” value [9] was roughly 12 fold.
